Experiment: soluble on expression in E. coli; label from the status in PepcDB or PDB records

Soluble on expression in E. coli, not soluble:
MGSDKIHHHHHHMTEDQAFWNAFAPDYAAAEQASRLPIAHDVIAWLRSTQLLPAHSAVDLAAGTGRYAVQMMPWVQELTLIDWSSAMLAFAKERMHQQADTKAQFIVADWRKLHKPLNADMLFVSQLPTLKPQDLKMLMNWASQTVVLNFQTAQSDALLEQAASLLGLQLPPVYQADPARMISFKVWLTAQRIPFQSHSLTYEIEEQTTLSDLLPDLATPIGLKTAASLAKAITGHENTHVQVTDRLTYTYTQLVWHV
MGSDKIHHHHHHMTEKIRVAVVGAAGAFGMKHLDGLMNIPDVEVTVVSGTRLEPTQAVAEKYGVENAVVGLDAVLERDDVDAVILATPTGLHASQTQAVLAAGKHVQVEIPLADSIVDAEAALEAAESSNRVAMVGHTRRFNPSHQLVHNRIASGEFHVQQMDVQTYFFRRTNTNAKGEARSWTDHLLWHHAAHTVDLFAYQAGKIVHANAIQGPIHPELGIAMDMSIQLKSESGAICTLSLSFNNNGPFGTFFRYIGDTETYIARYDDLYNGREEPIDVSHVAVSMNGIELQDREFISAIREGREPNSSLRHVIDCYRVLGSLEKQLS
MGSDKIHHHHHHMTEKKTMLEKLKKLMHHFTLSLDDISVETSRARQLSIRTEIDRLRSNERYKEPKSLIPFGGKIYSQNDEDGIIREIFNRIGTTNKVFVEFGIGNGLENNTLALLFEDWQGLWIDASSDSITSIRNHFSEIIGSGKLAVVESFITKANIDNLIATNVKHREIDLLSVDIDGNDYHVLQAISCITPRVIVIEYNAKFAPPVLFCMDYTETHMWTGDDCFGASLKFLETNLNKMGYCLVGCNLTGANAFFIRRELVTNKFLEPFTAENHFEPARYYLSGYASGHTPTYETLARSLTMRVS
MGSDKIHHHHHHMTESQALIWDETFPSLLLKGQGTTSFLHGQTTADVFAQKELDRIFMCCWLSTKGALKAVLEIRLSDDMAEIVIICGEINSIRDGFESVIFPADKVKLEVIDPIRRRQEINNNSSWKDSDFSWIDDNTFSIDGITKYKKATKEELEGWKIRQGIPSFDKEMNGETNPYELGLADTINLDKGCYLGQEAMAKFFRSKSLKYQLRYWEAYGENDNFQIGKKFFNTNKNEGYKKNVGVVTSSIRVDDNFFNGLALIKKTFLDHDFCFSENGDSITIKKPISFTNPF
MGSDKIHHHHHHMTETTSQMRREVLEIPAAIDRLLSQGTPEIARIAAAVAKADPRFAVTVARGSSDHACTFLKYALELELGLPVASIGPSVASIYGAQLKLANSITLSVSQSGKSPDIVAMSRAATEGDSFTVAITNDAQSPLSDASSHTIDIHAGPEISVAATKTFVTSAAAGLILLAEWKDDDILRAALRGLPECLSKAATHDWPDLRAAIGSASSLFTLGRGPAWAISNEAALKFKETCQIHAESYSSAEVLHGPVSIVGGGFPVLCFASGDAAEASVTDVADQLAAKGARVFVTSDKADTAHCLPHVRTGHPLTDPLALIVSFYAMIEKVAAERGVNPDAPRHLNKVTETV
MGSDKIHHHHHHMTFSAKNAAGETTGGVFTVALDRCAVYGRASSGAVCGSLLESAGWRPAAGSRVLVKPNLLRAQPDGLCCTHPQVVRAAVEYALDCGAVVTVGDSPAFGSAERVAQAVGLTDALQGLGVRVVTLDDPVDCRLPSGLRVGVARAALEADALLNVPRVKVHCQMRLTLAVKNLFGCVCGVRKAVAHTRHGDRGNRFEALIVELAERLPPSGVLLDGITAMHRTGPSGGDPYLLGLLGASCSSVAMDTAVGTLLGAAPETIPLWAELRRRKQPAAFVENLHFPVLFPADFSPQGVTPDGFCIPQVLKPVSFRPATLLRSLVRRMWHRYGPSA
MGSDKIHHHHHHMTHRRSKSVKIYLVGGAVRDSLLNLPIKDKDYMVVGATPEQMLQLGYRQVGKDFPVFLHPITQQEYALARTERKVGLGYGGFSCYASPDVTLEQDLLRRDLTINAIAQDEEGNLHDPFNGIGDLNARLLRHVSDAFIEDPLRVLRVARFAARFHHLGFQIADSTLQLMQQIAQSGELNALTPERVWQEVDKTLSGSNPEVFFEVLRQCGALKVLFPELDALFGIPQPEKWHPEIDTGLHTLMVLAQAAILTQDKAVRFAALVHDLGKAITPIEHLPKHHGHGQKGLPIIKALCERLRIPNEFRDLALIVSDQHQNVHQAFKLRPETIIKIFDKADFWRKPERLKQLVQACIADMRGRTGFEHQDYPQGEYFSQCFAVASNVNIKAIIQAGFKGEEIKQILHMHRIDAVGQLKRDKQNAVD
MGSDKIHHHHHHMTIDTSFNFKSDTPAEKDPDTWSPTLAAYHKLLWSKSLPNGRVFTLEYEKPPFYLRHRSDVGEFCLSSDTVVPSFRKKTIDGVAKDEMNFGGLGYTIGGMMVFPAIPIERKWTINQARGCNRKISDRFDLTVECIRRYYSDAQSPLDDVLRRYVDFFTLFRDFAGYVEFFHLQDVVNSDFTAVKFFLPFEDFEATSPIPQSRDAYLQYRSAAIDFLNARNQRIQNWVAKNIKG
MGSDKIHHHHHHMTIETIKRIIEEENVRFIRLQFTDINGTLKNLEITPDVFLESWEDGIMFDGSSIEGFVRIEESDMYLKPVLDTFAVLPWTVDGAKSARVICDVYTPDGKPFEGDPRYRLRRMMEKAEQLGYTPYAGPEMEFFILPINEKGEPVPEFLDHGGYFDLLPLSKVEEIRRDIAIALEKMGITVEATHHEVAPSQHEVDFRYDTFLRTADNAQTVKLVIKTMAIFHGYHATFMPKPFYGVNGSGMHVHMSLFRGDKNAFYDPDDPLGLSKELRYFVGGILKHAKALAAVTNPTINSYKRLVPGYEAPVYISWSVGNRSALIRIPKARGKATRLEYRSPDPSCNIYLAFAAILAAGLDGIINKIEPPAPVEENIYHMTSERREELNIESLPGSLKEAVEELKKDDVIIDALGEHIFEKFVEAAEKDWKEFSTYVTNWELQRYLYL
MGSDKIHHHHHHMTISYEKFHLKEVINASGKMTILGVSKVSEAVLAAQRFGGEHFFEMSELSVQTGAFLANLLKVEDAQIVSSASAGIAQSVAALIGKGSLYHAYHPYTEKIEQREIVLPKGHNVDYGTPVEVMVAQGGGQVVEAGYANMCSPEHVEMMISEKTAAILYIKSHHTVQKSMLTVAEAAKVAQRHKVPLIVDAAAEEDLFKYTEAGADLVIYSGAKAIEGPSAGLVVGKKEYIDWVRLQGKGIGRAMKIGKDNILGFTQAVEEYLAHGSESGASMQERLKPFVEAINNLSDLTAKIVQDGAGRDIYRASVKVDGRKTAKEVIQALKAESPAIYTREYQANNGIIEFDIRSVNQEEMNKIVQRLQEIMDKKEK
MGSDKIHHHHHHMTKAKYQQIEEILRRQITNGHYQEGDLIPKEFDLAEKYQVSRPTIRHAVQDLVNQGYLERRKHVGTIVKQTKIGQEFTHVLQSYNSEMSQKGLIAQTQVLFFKKEKASAEVAKALDLTENAPVYKLTRLRSADGNPIVLVTTYLPASKLSDFEKIDFTQQSLYQELEKRSLPIVHVKRKLEVKSADEMTANLLNIEEKVPIFYFHTYGYTKGEVPLEYSIAMYRGDENYFVIDLKR
MGSDKIHHHHHHMTLDLKQEKGREIFFRLAEKADVIIENFVPGVVKKLGVDYEAVKKVKPDIIYCHVSGFGQDGPYRDRPAFDQLIQGEAGIISYTGTRETPCKINVPITDLLASMYGAYAVLAALLRREKTGEGMEIDISLFDCAVTMMLNLMNMAIVEGMKDEELRMGTKYFLATPYEPYPAGDGKLVNVVVATEWHWKEFCKAVGLEELLDDPRFATNQQRLKHREQLERIIIEKFREKPRDDWIEILLKAGVPCGAVNTIQEVIEHPQTKHRKTVVEVDYPELGKIKLFNNPVKFSGFEVEVRRPPKLGEHTEEILKSIGLSEEEIADLRA
MGSDKIHHHHHHMTLKKLRANDRMKQIMAGYYMMGNQAEVKGWITSGAPVELLYAMDIYPVYPENHGALIGAAKQGPYFSDFAERKGFSRDLCSYARCDIGCVFAGTSPIGGLPEPTFLFACNNICNTVVKWYEVLSRIFKVPLFVLDTPFVRKELKESYVKYVHDQLYEFVDFLEKTTGRELSDSKLRDTVIKSIQGVKAYAEVLGMARHKPSPLTCFDAFINMAPIVCLRGTDYPVQFYAEMKEELEERVKRGEGAIENEEIRLLWDNIPVWYRLKWFSEFFAERNACLVADTYTNAWTGFISIDKSDIFWSMAETYTFIYLNIGLEHMAEAINRLIDYYDVDGAVIHSNRSCKPYSFGQYELQKMIEVPSVIIEADMVDSRTFSEAQVETRLEAFLEMLR
MGSDKIHHHHHHMTLRARIQTAVSLVYPARCLNCGGLVESDFGLCGACWRDTTFISGLVCEGCGAPLPGEDDGQMVHCDACLRAPGEWDRGRAALVYTGQGRRLVLALKHGDRTDLVRPASAWMARAARVLLSPKPLLVPVPLHWTRLLHRRYNQSALLAQAIAAREECDCCPDALIRVAKTPMLEGYSRSERRALLSDAIRPNPRMASRLKGRRVLLVDDVMTSGSTLSACARACMDAGAKSTNVAVLARVTGS
MGSDKIHHHHHHMTLSEYLQQLTQFKTIEELWRAHVQQMSRYGFDRLLYGYTLFKTRTSLGDPDDFVILTNHCPEYLQGFLADGLYAHAPMLTWALENEGHASWRVSQEMAAQGLLDKQARKVQDFNQSMGVHAGYTISFNSASERFKGAISLAARADLDQDGIDQIWAEHGADIVLMNNVAHLKILTLPYHAPKRGLTKRQREVLQWVGDGKTTQDIALLMGLTPATIEKHLRLARATLSVETTAQAVLKAALHNQMYAVEH
MGSDKIHHHHHHMTLTANNKKRAVLRVRPGQFVVTPAIEQVAIRALRYLTSGFAIHLRGPAGTGKTTLAMHLANCLDRPIMLIFGDDEFKSSDLIGSESGYTHKKLLDNYIHSVLKVEDEFKQNWVDSRLTLACREGFTLVYDEFNRSRPEVNNVLLSALEEKILTLPPSSNQPEYLHVNPQFRAIFTSNPEEYCGVHSTQDALMDRLVTINMPEPDELTQTEILAQKTALNRADALLVVQLVKAFRSRTGGEKTSGLRSCLMIAKVCAEHNILVAPESSDFREICADVLFNRTNWSASEATTIFLELLNHLNLEEIEEFKNSITSEDTDAIADEDHNAINESGFPTIIDSQFGTLDSEVLEQPGVEDSIPFEREIYLYLQQYKSAALALLQQEFELSRTVATNALNSLEQKGLVSKNNHVYTIEEPNQP
MGSDKIHHHHHHMTMLSTPQPTLADLAIEPGLPTVVSPRAGAAISLEEAAPLLRAIVDDTLERAGGVLFTGFHVASIDAFQSFAGSFGHPLIGYEFASTPRSQVEGAVYTSTEYPPHRSIPLHNEQSYTREWPLRIWFHCALAARSGGATPIADSRAIYRALDPALVDRFAKRELLYVRNFGQGLDLPWEQAFGSADPRTVERICRARGIECEWRDSEDGELLLRTRERCQAVARHPRTGEHVWFNQANLFHLSSLDEDMQEALIDSVGLENVPRNVYYGDGEPLEADALAEIRGVLDQQRIVFPWLTGDVLMLDNMLSAHARDPFEGPRKVVVAMARSYSEAEGEKRTAAP
MGSDKIHHHHHHMTNAAKTGVERTYEYKERINGILGMMEQAPAEQRNPVLEGLLRLIMETNERTIDCAENGKPFVSTWYGNAPEILTAMDIHFIVPVFDILLHEYFTDLYDVKEADKISLPDDICSLIRFGAYAIENKLLPRPTAIISMLEPCDAELMLHQYYQSSEHWGGVPTFGLDPAYGSTDEDFMYFAGELKRLIHFLVEITGQKYDVDKLRKVVAETNTQYELWAEYNELRRVTPCPHGSFQGSVPLWTLTQFISSGDPRATELIRMMIMDAEAKVKAGIGAVPNEQIRILWADLAPQWGDLLAPWLAEEWGANVVMDYQGYSPYTHIDTTSEDTMLYGLARRALHEVPMIRQGRGTVEVMIEDMTRIIKDYTINCVFWPGHMGHKDVSGSVHFMQELCRSLNVPLLCLTTSLFDERYTPLDKVKQQMSEFFEATGWSKNSST

Reference: the DeepSol protein solubility set
